{"source": "paper PMC7065948", "experiment_in_all_cases": "peptide or protein array", "key": {"[1]": {"target": "PTPESANL (PL8) (SIVsm (isolated from sooty mangabeys) strains)"}, "[2]": {"target": "TTPESANL (TL8) (SIVmac251 strains)"}, "[3]": {"target": "Tat SL8 epitope (Tat 28-35) (SIVmac239)"}}, "data": [{"substance": "rhesus MHC class I Mamu-A1*001 complex (heavy chain with human β2 microglobulin) (from UniProt P61769 21-119)", "values": [{"measurement": "binding score", "setting": "[1]", "result": 6.28}, {"measurement": "binding score", "setting": "[2]", "result": 8.72}, {"measurement": "binding score", "setting": "[3]", "result": 8.33}, {"measurement": "fluorescence intensity above the median (sd above the median)", "setting": "[3]", "result": 7.15}]}]}
